Results reported in article PMC2685181 (The Journal of neuroscience : the official journal of the …, 2008).
Where no end group is shown, it is not given here.

B1: GST_I-II loop with seven alanines inserted between F376 and L377 (domain or fragment, rabbit, UniProt P27884 369-413, looked up)
chain: RVENRRAFAAAAAAALKLRRQQQIERELNGYMEWISKAEEVILAEDETDVEQ
B2: GST_I-II loop with seven glycines inserted between F376 and L377 (domain or fragment, rabbit, UniProt P27884 369-413, looked up)
chain: RVENRRAFGGGGGGGLKLRRQQQIERELNGYMEWISKAEEVILAEDETDVEQ
modifications: not fully specified

Target: WT β1b_core (core region of Ca2+ channel β1b subunit, G58-T418) (human, UniProt Q02641-1 58-418)
Experiment: pull-down

Chain of WT β1b_core (core region of Ca2+ channel β1b subunit, G58-T418) (Q02641 58-418): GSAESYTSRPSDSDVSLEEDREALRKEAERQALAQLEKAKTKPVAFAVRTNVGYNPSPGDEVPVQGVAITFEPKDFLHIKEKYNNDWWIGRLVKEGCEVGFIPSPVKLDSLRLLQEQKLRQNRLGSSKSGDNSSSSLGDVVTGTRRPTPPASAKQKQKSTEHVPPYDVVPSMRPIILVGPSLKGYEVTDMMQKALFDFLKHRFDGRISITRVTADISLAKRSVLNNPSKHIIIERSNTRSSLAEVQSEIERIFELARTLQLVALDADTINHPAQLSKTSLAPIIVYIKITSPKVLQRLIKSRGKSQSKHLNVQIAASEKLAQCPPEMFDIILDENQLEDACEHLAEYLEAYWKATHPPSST

Binding result, binds:
RVENRRAFAAAAALKLRRQQQIERELNGYMEWISKAEEVILAEDETDVEQ (domain or fragment, rabbit, UniProt P27884 369-413, looked up) [GST_I-II loop with five alanines inserted between F376 and L377]
RVENRRAFGGGGGLKLRRQQQIERELNGYMEWISKAEEVILAEDETDVEQ (domain or fragment, rabbit, UniProt P27884 369-413, looked up, not fully specified) [GST_I-II loop with five glycines inserted between F376 and L377]
B1
B2
